Series [1] deals with p27.Pi-S83, p27 pre-phosphorylated in vitro by CK2-alpha-prime at S83.
The target in series [2] is p27.T187A (recombinant, His-tagged).
Series [3] deals with phosphomimicking mutant p27.S83D/T187D (recombinant, His-tagged).
For series [4], the target named is p27deltaPi (p27.S83A/T187A; recombinant, His-tagged).
The target in series [5] is p27.S83A (recombinant, His-tagged).
Series [6] addresses p27.Pi-T187, p27 pre-phosphorylated in vitro by CK2-alpha-prime at T187.
Series [7] addresses p27.Pi-S83/T187, p27 pre-phosphorylated in vitro by CK2-alpha-prime at S83 and T187.
For series [8], the target named is recombinant His-tagged wt.p27.

Chain of phosphomimicking mutant p27.S83D/T187D (recombinant, His-tagged) (chain, as listed by the source S83D T187D): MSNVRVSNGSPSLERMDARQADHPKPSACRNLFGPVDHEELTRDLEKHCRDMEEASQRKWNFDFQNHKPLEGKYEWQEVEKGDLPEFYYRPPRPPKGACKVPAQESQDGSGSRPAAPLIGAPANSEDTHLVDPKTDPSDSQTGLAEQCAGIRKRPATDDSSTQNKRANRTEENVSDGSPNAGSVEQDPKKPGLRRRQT
Chain of p27deltaPi (p27.S83A/T187A; recombinant, His-tagged) (chain, as listed by the source S83A T187A): as the sequence (chain, as listed by the source S83D T187D) above, with D83A, D187A counted along it
Chain of p27.S83A (recombinant, His-tagged) (chain, as listed by the source S83A): as the sequence (chain, as listed by the source S83D T187D) above, with D83A, D187T counted along it
Chain of p27.Pi-T187, p27 pre-phosphorylated in vitro by CK2-alpha-prime at T187 (chain, as listed by the source): as the sequence (chain, as listed by the source S83D T187D) above, with D83A, D187T counted along it

B1: recombinant active His-tagged CK2-alpha-prime/beta (protein)
chain 1: MPGPAAGSRARVYAEVNSLRSREYWDYEAHVPSWGNQDDYQLVRKLGRGKYSEVFEAINITNNERVVVKILKPVKKKKIKREVKILENLRGGTNIIKLIDTVKDPVSKTPALVFEYINNTDFKQLYQILTDFDIRFYMYELLKALDYCHSKGIMHRDVKPHNVMIDHQQKKLRLIDWGLAEFYHPAQEYNVRVASRYFKGPELLVDYQMYDYSLDMWSLGCMLASMIFRREPFFHGQDNYDQLVRIAKVLGTEELYGYLKKYHIDLDPHFNDILGQHSRKRWENFIHSENRHLVSPEALDLLDKLLRYDHQQRLTAKEAMEHPYFYPVVKEQSQPCADNAVLSSGLTAAR
chain 2: not shown
Consider B1, for which the “recombinant CK2-alpha-prime activity in vitro (32P incorporated into histone H1)” value in series [1] is “an incremental loss of p27 inhibitory activity towards CK2-alpha-prime when compared to wt.p27”; in series [3], “Simultaneous phosphorylation of S83/T187 in p27.Pi-S83/T187 or introducing phosphomimicking mutations in p27.S83D/T187D abolished the ability of p27 to inhibit CK2-alpha-prime”; in series [6] it was “an incremental loss of p27 inhibitory activity towards CK2-alpha-prime when compared to wt.p27”; in series [7], “Simultaneous phosphorylation of S83/T187 in p27.Pi-S83/T187 or introducing phosphomimicking mutations in p27.S83D/T187D abolished the ability of p27 to inhibit CK2-alpha-prime”; in series [8] it was “Wt.p27 completely inhibited recombinant CK2-alpha-prime activity in vitro”. Further, the “reduction in phosphorylation by CK2-alpha-prime” value in series [2] is “The S83A and T187A point mutants exhibited a 68% and 27% reduction in phosphorylation by CK2-alpha-prime, respectively”; in series [5], “The S83A and T187A point mutants exhibited a 68% and 27% reduction in phosphorylation by CK2-alpha-prime, respectively”. Moreover, the figures for the “phosphorylation of p27 in in vitro kinase reactions (32P incorporated into p27)” value in series [4] and in series [8] were “CK2-alpha-prime failed to phosphorylate p27deltaPi containing double-substituted mutations (S83A/T187A)” and “Wt.p27 was phosphorylated by CK2-alpha-prime”, respectively.

B2: catalytically-inactive kinase-dead CK2-alpha-prime (kd.CK2-alpha-prime), K69M (protein)
chain: MPGPAAGSRARVYAEVNSLRSREYWDYEAHVPSWGNQDDYQLVRKLGRGKYSEVFEAINITNNERVVVMILKPVKKKKIKREVKILENLRGGTNIIKLIDTVKDPVSKTPALVFEYINNTDFKQLYQILTDFDIRFYMYELLKALDYCHSKGIMHRDVKPHNVMIDHQQKKLRLIDWGLAEFYHPAQEYNVRVASRYFKGPELLVDYQMYDYSLDMWSLGCMLASMIFRREPFFHGQDNYDQLVRIAKVLGTEELYGYLKKYHIDLDPHFNDILGQHSRKRWENFIHSENRHLVSPEALDLLDKLLRYDHQQRLTAKEAMEHPYFYPVVKEQSQPCADNAVLSSGLTAAR
With B2, the “phosphorylation of p27 in in vitro kinase reactions (32P incorporated into p27)” value in series [8] was “Wt.p27 was phosphorylated by CK2-alpha-prime but not catalytically-inactive kinase-dead CK2-alpha-prime (kd. CK2-alpha-prime)”.

These data come from US20110086089.
